Data: paper PMC7430590 (bioRxiv, 2020)

How the values were obtained:
[1] = target: receptor binding domain (RBD; residues 319–541) of the SARS-CoV-2 spike (S) protein (SARS-CoV-2, UniProt P0DTC2); experiment: crystal structure
[2] = target: SARS-CoV-2 S protein-RBD-mFc (SARS-CoV-2, early reference sequence …, UniProt P0DTC2); experiment: SPR
[3] = target: Fc fusion protein of the RBD-SD1 region of SARS-CoV (SARS-CoV, strain not named, UniProt P59594); experiment: ELISA

B1: CV07–270 Fab (Fab, V domains shown)
VH: QVQLVESGGGLVKPGGSLRLSCAASGFTFSDYYMTWIRQAPGKGLEWVSYISSSGSTIYYADSVKGRFTISRDNAKNSLYLQMNSLRAEDTAVYYCARARGSSGWYRIGTRWGNWFDPWGQGTLVTVSS
VL: QSALTQPASVSGSPGQSITISCTGTSSDVGGYNYVSWYQQHPGKAPKLMIYEVSNRPSGVSNRFSGSKSGNTASLTISGLQAEDEADYYCSSYTSSSNVVFGGGTMLTVL
binding result [1]: binds

B2: CV07–209 (antibody, V domains shown)
VH: QVQLVESGGGLVKPGGSLRLSCAASGFTFSDYYMSWIRQAPGKGLEWVSYISSSVSTIYYADSVKGRFTISRDNAKNSLYLQMNSLRAEDTAVYYCARDGVIPPRFDYWGQGTLVTVSS
VL: not shown
Kd [2]: 6 pM

B3: CV38–142 (antibody, V domains shown)
VH: EVQLVQSGAEVKKPGESLKISCQGSGYSFTSYWIGWVRQMPGKGLEWMGIIYPGESDTRYSSSFQGHVTISADKSISTAYLQWSSLKASDTAMYYCARIRGVYSSGWIGGDYWGQGTLVTVSS
VL: not shown
binding result [3]: binds
